Results on one molecule are retold here after paper PMC9082959, “Mechanism of Assembly of the Non-Covalent Spectrin Tetramerization Domain from Intrinsically Disordered Partners” (Journal of molecular biology, 2013).

Holding throughout (experiment): ITC; β16β17 at 25–50 μM in the cell titrated with 15–20 injections to 2–2.5 eq of α0α1; one-site binding model; PBS (50 mM sodium phosphate, 150 mM NaCl, pH 7.04), 25 °C; mutants only against the wild-type partner
Conditions in all cases: both partners purified
(In ITC the heat of successive injections is recorded.)

The target in one assay is β16β17 F51L (human, UniProt P11277 1898-2083, F51L (domain identifier), printed F2054G as protein identifier, The table's protein identifier F2054G is taken as a typo: the domain identifier is F51L (offset 2003), and the text says aromatic residues were mutated to Ala or Leu).
In a further assay the target is T1, β16β17 Y28L (human, UniProt P11277 1898-2083, Y2031L).
T1 construct: erythrocyte β-spectrin, human, residues 1898-2083 (β16β17); mutant of m2; also called Y2031L; source: E. coli C41(DE3), purified (Ni2+ agarose, thrombin cleavage, gel filtration)
T1 sequence (looked up): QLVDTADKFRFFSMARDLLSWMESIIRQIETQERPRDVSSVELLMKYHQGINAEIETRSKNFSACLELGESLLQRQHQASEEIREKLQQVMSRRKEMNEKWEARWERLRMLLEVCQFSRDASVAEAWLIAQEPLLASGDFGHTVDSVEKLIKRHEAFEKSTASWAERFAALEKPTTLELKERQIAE

The target of the next assay is T2, β16β17 F62A (human, UniProt P11277 1898-2083, F2065A).
T2 construct: erythrocyte β-spectrin, human, residues 1898-2083 (β16β17); mutant of m2; also called F2065A; source: E. coli C41(DE3), purified (Ni2+ agarose, thrombin cleavage, gel filtration)
T2 sequence (looked up): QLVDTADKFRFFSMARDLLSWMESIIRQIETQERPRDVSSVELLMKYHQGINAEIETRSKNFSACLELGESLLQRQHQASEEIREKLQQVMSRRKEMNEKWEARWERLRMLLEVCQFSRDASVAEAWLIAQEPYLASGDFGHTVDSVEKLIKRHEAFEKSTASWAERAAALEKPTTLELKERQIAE

The target of assay [1] is T3, β16β17 (erythrocyte β-spectrin residues 1898–2083), wild type (human, UniProt P11277 1898-2083).
T3 construct: erythrocyte β-spectrin, human, residues 1898-2083 (β16 plus the incomplete 17th domain); synthetic gene (GenScript) in a modified pRSETA plasmid; source: E. coli C41(DE3), purified (Ni2+ agarose, thrombin cleavage, gel filtration)
T3 sequence (looked up): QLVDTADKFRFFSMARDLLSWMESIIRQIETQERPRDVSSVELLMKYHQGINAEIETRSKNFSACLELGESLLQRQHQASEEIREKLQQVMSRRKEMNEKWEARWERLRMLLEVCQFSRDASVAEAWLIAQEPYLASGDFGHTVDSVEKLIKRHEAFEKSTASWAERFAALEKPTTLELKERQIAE

A further assay addresses T4, β16β17 F11A (human, UniProt P11277 1898-2083, F2014A).
T4 construct: erythrocyte β-spectrin, human, residues 1898-2083 (β16β17); mutant of m2; also called F2014A; source: E. coli C41(DE3), purified (Ni2+ agarose, thrombin cleavage, gel filtration)
T4 sequence (looked up): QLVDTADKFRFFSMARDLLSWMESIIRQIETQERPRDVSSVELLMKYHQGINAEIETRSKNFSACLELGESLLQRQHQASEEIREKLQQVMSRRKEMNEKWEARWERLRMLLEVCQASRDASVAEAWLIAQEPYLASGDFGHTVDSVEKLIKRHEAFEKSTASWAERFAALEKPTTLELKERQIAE

A further assay has as its target T5, β16β17 F11L (human, UniProt P11277 1898-2083, F2014L).
T5 construct: erythrocyte β-spectrin, human, residues 1898-2083 (β16β17); mutant of m2; also called F2014L; source: E. coli C41(DE3), purified (Ni2+ agarose, thrombin cleavage, gel filtration)
T5 sequence (looked up): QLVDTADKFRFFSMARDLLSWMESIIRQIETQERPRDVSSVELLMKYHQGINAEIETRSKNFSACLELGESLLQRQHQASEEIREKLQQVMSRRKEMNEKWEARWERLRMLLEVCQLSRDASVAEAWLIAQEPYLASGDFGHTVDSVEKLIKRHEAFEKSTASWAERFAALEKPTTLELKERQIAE

The next assay addresses T6, β16β17 L22A (human, UniProt P11277 1898-2083, L2025A).
T6 construct: erythrocyte β-spectrin, human, residues 1898-2083 (β16β17); mutant of m2; also called L2025A; source: E. coli C41(DE3), purified (Ni2+ agarose, thrombin cleavage, gel filtration)
T6 sequence (looked up): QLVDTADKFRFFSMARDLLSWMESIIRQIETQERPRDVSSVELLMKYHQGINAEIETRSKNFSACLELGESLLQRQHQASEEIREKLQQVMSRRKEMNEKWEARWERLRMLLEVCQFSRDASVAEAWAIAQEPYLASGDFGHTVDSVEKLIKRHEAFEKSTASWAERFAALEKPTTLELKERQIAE

B1: α0α1 (erythrocyte α-spectrin residues 2–163), wild type (domain or fragment, human, UniProt P02549 2-163, looked up)
chain: EQFPKETVVESSGPKVLETAEEIQERRQEVLTRYQSFKERVAERGQKLEDSYHLQVFKRDADDLGKWIMEKVNILTDKSYEDPTNIQGKYQKHQSLEAEVQTKSRLMSELEKTREERFTMGHSAHEETKAHIEELRHLWDLLLELTLEKGDQLLRALKFQQY
notes: synthetic gene (GenScript) in a modified pRSETA plasmid; also called α1α0; source: E. coli C41(DE3), purified (Ni2+ agarose, thrombin cleavage, gel filtration)
As to B1, the Ka in the assay with β16β17 F51L came out at 180000 M⁻¹; in the assay with β16β17 Y28L, 170000 M⁻¹; with β16β17 F62A it was 13000 M⁻¹; in assay [1], 2.07e+06 M⁻¹; in the assay with β16β17 F11A, 6000 M⁻¹; in the assay with β16β17 F11L, 16000 M⁻¹. Moreover, the Ka with β16β17 L22A stood at 6000 M⁻¹.
